Changes are numbered by the printed parent chain.
B1: 3h56-269-IgG1.1f (Fc fusion)
chain: EVQLLESGGGLVQPGGSLRLSCAASGFTFRDYEMWWVRQAPGKGLERVSAINPQGTRTYYADSVKGRFTISRDNSKNTLYLQMNSLRAEDTAVYYCAKLPFRFSDRGQGTLVTVSSASTEPKSCDKTHTCPPCPAPEAEGAPSVFLFPPKPKDTLMISRTPEVTCVVVDVSHEDPEVKFNWYVDGVEVHNAKTKPREEQYNSTYRVVSVLTVLHQDWLNGKEYKCKVSNKALPSSIEKTISKAKGQPREPQVYTLPPSREEMTKNQVSLTCLVKGFYPSDIAVEWESNGQPENNYKTTPPVLDSDGSFFLYSKLTVDKSRWQQGNVFSCSVMHEALHNHYTQKSLSLSPGK
B2: 3h56-269-IgG1.3f (Fc fusion)
chain: B1 chain with S234A, S235P

Target: T1, human-CD40-Fc (human, UniProt P25942 21-193)
T1 construct: generated in house; also called hCD40-Fc; not shown: Fc part of the in-house hCD40-Fc is not described
Experiment: SPR, dAb-Fc on immobilized hCD40-Fc, apparent KD (avidity)

T1 sequence (P25942 21-193): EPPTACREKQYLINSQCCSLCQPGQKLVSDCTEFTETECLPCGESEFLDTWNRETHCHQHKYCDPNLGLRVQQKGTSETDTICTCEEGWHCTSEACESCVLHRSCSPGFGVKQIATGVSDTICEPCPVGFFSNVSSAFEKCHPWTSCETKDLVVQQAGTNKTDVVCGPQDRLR

Binder	Kd
B1	< 1 nM
B2	< 1 nM

Reference: patent US20200148779A1 (Bristol-Myers Squibb, published 2020)
